Data on eight sequences can be found in the DeepSol protein solubility set.

A short description of this series: soluble on expression in E. coli; label from the status in PepcDB or PDB records.
As to “MSALRHIAVIDIGKTNAKVALVDLATSSEVALRRMANAPVRQAPYPHHDVESLWTFILDSLAGLNCEQRIDAISITTHGATGALVDASGELVLPVLDYEFDGPNGLAADYDAIRPPFAETGTPRLPLGLNLGAQFFWQQKRFPAAFAHATAILMYPQYWALRLTGVAANEVTSLGCHTDLWNPWTAGFSSLVDRLDWRGLMAPVRPARNRLGPILPALAARTGLDARTPVFCGLHDSNASLLPHLLSDAPPFSVVSTGTWVVSMAVGGREIALDAARDTLVNVNALGDPLPSARFMGGREFSVLTEGQPETWSEDDIGAVLARKTLLLPSTQQGSGPFPHQAATWLDAESINDGQRFAAVSFYLALMTATCLDLIGADGPTTVEGPFARNQLFVGMLAASTGRAVVASEATTGTSIGAALLASDQVMAYGKGERIEPPTDRAWADYANAWRVAVEARGLEHHHHHH”, the “soluble on expression in E. coli” value is given as “not soluble”.

Turning to “MTQPEAVFFDCDGTLVDSEVICSRAYVHMFQEFGITLDLAEIFKRFKGVKLYEIIDTINAEYGVNLQKATLEPIYRAEVARLFDSELEVIPGAQALLDAVSVPMCVVSNGPVSKMQHSLGRTGLLRHFTDRLYSGYDIQRWKPDPALMFHAAEAMQVKAENCILVDDSSAGAQSGIAAGMEVFYFCADPHNQPIDHPKVTTFTDLAELPALWQARGWDITR”, the “soluble on expression in E. coli” value is on record as “not soluble”.

For the sequence “VSTLSKEQVKEIIKGNNFQSVADVSAYLRDIFKDIIQELLEAELEAKLGYAKDDVENKNTDNSRNGYSPKTIKSEFREVEIQVPRDRKGEFKPQIIPKYQRNVSGIEEKVIALYARGMSTRDISEQIEELYGFSLSPEMVSKITDRIAPEIKEWQQRPLEPIYTFVFMDEIH”, the “soluble on expression in E. coli” value is recorded as “soluble”.

As to “MEERLNRVKQQLQQSSYKLTPQREATVRVLIENEKDHLSAEDVYLKVKDKAPEIGLATVYRTLELLAELKVVDKINFGDGVARFDLRKEGAKHFHHHLVCMECGRVDEIDEDLLPEVENRVENEFNFKILDHRLTFHGVCETCQAKGKG”, the “soluble on expression in E. coli” value was “not soluble”.

Turning to “LTRFFGDFFLDIEVKLADVAMMYGLNLGYELQDKTLSNIVEEQLGSTPVLGDQFEWQGLQWVIADVVDHQVTKVGLRLPNEEEEGEEED”, the “soluble on expression in E. coli” value is reported as “not soluble”.

In the case of “MGSDKIHHHHHHMDRKMNFVMISPHFPANFETFAHRLYENGINTLGIADTPYEQLSQGLRDHLTEYYRVDNMEDYDQVYRAVAYFAHKYGRIDRIESHNEYWLELDAHLRTDFNVFGYKNEDMLSIKTKARMKEIFRKTGIKVARGRVFTSTEDARALTKELGFPVIIKPNSGVGASDTYKIKSAEELEDFFGYQNPTVDYIMEEFIDGDIVTFDGLTDHEGNIVFYSSLEYSEAVLDTVEKDNDMFYYVPRDISPELIKLGEQCVEAFNVKERFFHFEFFRIKKTKDLMALEVNCRPPGGLTIDMWDYANDFDVFNEYAHIVKDNRFEAHITRPYNVVYIARKANKHYAHSIEDIETKFGHHIIEIESVPGIFAKIMGEVGILARTETMNEMRDIICFAHAKI”, the “soluble on expression in E. coli” value is listed as “not soluble”.

Regarding “MKNICFINGSPRSKKANSTLYLNLIDKSLDSKNYTKYYIDTTSSIKGDLESTFKTLLDADYIILAFPLYVYSMPSLLVRFLEDYYIYLKNKDTISQKTNLYAVVNCGFPDAKMNVEALKIVFNCCKKLNINFRFGIGIGAGEFVNFSKNNPLLNKLSSCVYKSINKITYDIENQVSIEINNIFVNPKIPRRLFFIFGHIFWKKWAKRNGIKISALFDKPLEHHHHHH”, the “soluble on expression in E. coli” value is listed as “not soluble”.

Regarding “MGHHHHHHSHHRFSINGHFYNHKTSVFTPAYGSVTNVRINSTMTTPQVLKLLLNKFKIENSAEEFALYVVHTSGEKQKLKATDYPLIARILQGPCEQISKVFLMEKDQVEEVTYDVAQYIKFEMPVLKSFIQKLQEEEDREVKKLMRKYTVLRLMIRQRLEEIAETPATI”, the “soluble on expression in E. coli” value is recorded as “not soluble”.
